Measured values taken from patent publication US7785825B2, “Compositions and methods for dehydration and cyclization of peptides, synthetic compounds, and lantibiotics” (priority 2004, dated 2010).

How the values were obtained:
LctM = LctM (Lactococcus lactis subsp. lactis, UniProt P37609); assay: LctM activity assay: dehydration and cyclization of peptide substrates, read out by MS; type: biochemical, Lactococcus lactis CNRZ 481; conditions: for effect on LctM processing of His6-LctA: ATP analog in place of ATP, EDTA added; for number of dehydrations after incubation with LctM: MALDI-MS / ESI-FTMS of product
From the text: For MALDI MS analysis, 1 microL of the assay sample was mixed with 9 microL of sinapinic acid pre-dissolved in MeCN:H2O (2:1) in 0.1% TFA and 1 microL of the mixture was applied on the MALDI target. MALDI MS calcd. […] ESI-FT-MS for the major product: mass calcd.

[1] = test system: methicillin-resistant Staphylococcus aureus (MRSA); conditions: cited from earlier work
[2] = target: His6-LctA (Lactococcus lactis CNRZ 481)
[3] = target: His6-LctA-T48S (Lactococcus lactis CNRZ 481)
[4] = target: LctMutA (Artificial Sequence)
[5] = target: LctRumA (Artificial Sequence)
[6] = target: MutA (His-tagged mutacin II prepeptide) (Artificial)
[7] = target: LctMutAK (Artificial Sequence)
L. lactis CNRZ 117 = assay: Bioassay for lantibiotic activity (solid agar diffusion); type: cell-based, Lactococcus lactis; conditions: agar diffusion assay, lacticin 481-sensitive indicator strain L. lactis CNRZ 117
Protocol: The lyophilized assay product (˜0.1 microg) was redissolved in 6 microL of Millipore water. To the solution, 4 microL of a solution of Lys-C in 100 mM Tris, pH 8.5 (0.4 ng/microL) was added and the mixture was incubated at 37° C. for 3 h. The resulting mixture was checked by MALDI-TOF MS. Three fragments were expected and two were observed: calcd, 2310 ([1-21]), 2591 ([22-44]), 2773 ([45-70]); found, 2593 ([22-44]), 2775 ([45-70]).
Inhibitory activity was assayed by the solid agar medium test. A GM17 agar plate was seeded with the test strain by mixing 100 mL of liquid GM17 agar at 50° C. with 1.5 mL of an overnight culture. After agar solidification, wells were created in the medium and the samples were added to the wells. The activity of the starting peptide, LctM-product, and the product and starting peptide treated with Lys-C were determined using a solid agar diffusion bioassay with indicator strain L. lactis CNRZ 117 (See FIG. 5).
FIG. 5 illustrates a bioassay for lantibiotic activity. Small aliquots of the following samples were added in the wells: (1) His6-LctA (SEQ ID NO:4), (2) His6-LctA treated with Lys-C, (3) His6-LctA modified by LctM, (4) His6-LctA modified by LctM and treated with Lys-C, (5) cell free broth of L. lactis CNRZ 117, (6) cell free broth of L. lactis CNRZ 481 containing lacticin 481, (7) 50 mM Tris buffer, pH 8.5, (8) Lys-C in 50 mM Tris buffer, pH 8.5.

[8] = target: T1, protease domain of LctT (GST-Lpd) (Lactococcus lactis subsp. lactis, UniProt P37608); assay: Leader cleavage by the LctT protease domain (GST-Lpd); type: biochemical, Lactococcus lactis CNRZ 481; conditions: MALDI-TOF MS
T1 sequence (P37608 whole entry, looked up): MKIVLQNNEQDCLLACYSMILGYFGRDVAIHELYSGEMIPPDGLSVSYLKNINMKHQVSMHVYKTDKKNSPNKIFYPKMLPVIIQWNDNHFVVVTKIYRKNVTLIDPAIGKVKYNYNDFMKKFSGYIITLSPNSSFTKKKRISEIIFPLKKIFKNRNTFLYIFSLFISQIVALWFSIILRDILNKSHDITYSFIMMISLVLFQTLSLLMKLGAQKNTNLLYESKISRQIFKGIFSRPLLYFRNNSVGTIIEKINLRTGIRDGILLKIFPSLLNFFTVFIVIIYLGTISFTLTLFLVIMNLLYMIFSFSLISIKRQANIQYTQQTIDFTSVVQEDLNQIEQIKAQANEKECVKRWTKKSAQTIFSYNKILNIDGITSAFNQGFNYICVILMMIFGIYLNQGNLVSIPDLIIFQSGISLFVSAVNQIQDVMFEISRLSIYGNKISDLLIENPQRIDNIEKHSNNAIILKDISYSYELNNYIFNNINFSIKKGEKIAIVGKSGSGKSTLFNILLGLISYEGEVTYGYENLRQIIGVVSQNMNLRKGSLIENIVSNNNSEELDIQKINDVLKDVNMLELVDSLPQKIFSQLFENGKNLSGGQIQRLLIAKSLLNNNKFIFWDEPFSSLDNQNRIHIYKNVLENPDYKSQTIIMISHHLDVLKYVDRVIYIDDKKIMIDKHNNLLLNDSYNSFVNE
Protocol: Cleavage of His-LctA and His-pro-Lacticin. The unmodified His-LctA substrate was either directly incubated with GST-Lpd or first modified by LctM prior to incubation with the protease. Assay mixtures typically contained substrate (50-500 μg), GST-Lpd (35-70 μg) and a buffer consisting of 200 mM NaPi, pH 7.5, 200 mM Na2SO4 and 5 mM DTT. Assays were incubated at 37° C. for 12 h and analyzed by MALDI-TOF MS. Both unmodified and modified His-LctA were substrates for GST-Lpd as determined by MALDI-TOF MS and sensitivity of indicator strain Lactococcus lactis 117 towards the modified substrate after cleavage. See FIG. 83 which illustrates LctT as a bifunctional protein including the proteolytic domain.

Sequence of LctM (P37609 whole entry): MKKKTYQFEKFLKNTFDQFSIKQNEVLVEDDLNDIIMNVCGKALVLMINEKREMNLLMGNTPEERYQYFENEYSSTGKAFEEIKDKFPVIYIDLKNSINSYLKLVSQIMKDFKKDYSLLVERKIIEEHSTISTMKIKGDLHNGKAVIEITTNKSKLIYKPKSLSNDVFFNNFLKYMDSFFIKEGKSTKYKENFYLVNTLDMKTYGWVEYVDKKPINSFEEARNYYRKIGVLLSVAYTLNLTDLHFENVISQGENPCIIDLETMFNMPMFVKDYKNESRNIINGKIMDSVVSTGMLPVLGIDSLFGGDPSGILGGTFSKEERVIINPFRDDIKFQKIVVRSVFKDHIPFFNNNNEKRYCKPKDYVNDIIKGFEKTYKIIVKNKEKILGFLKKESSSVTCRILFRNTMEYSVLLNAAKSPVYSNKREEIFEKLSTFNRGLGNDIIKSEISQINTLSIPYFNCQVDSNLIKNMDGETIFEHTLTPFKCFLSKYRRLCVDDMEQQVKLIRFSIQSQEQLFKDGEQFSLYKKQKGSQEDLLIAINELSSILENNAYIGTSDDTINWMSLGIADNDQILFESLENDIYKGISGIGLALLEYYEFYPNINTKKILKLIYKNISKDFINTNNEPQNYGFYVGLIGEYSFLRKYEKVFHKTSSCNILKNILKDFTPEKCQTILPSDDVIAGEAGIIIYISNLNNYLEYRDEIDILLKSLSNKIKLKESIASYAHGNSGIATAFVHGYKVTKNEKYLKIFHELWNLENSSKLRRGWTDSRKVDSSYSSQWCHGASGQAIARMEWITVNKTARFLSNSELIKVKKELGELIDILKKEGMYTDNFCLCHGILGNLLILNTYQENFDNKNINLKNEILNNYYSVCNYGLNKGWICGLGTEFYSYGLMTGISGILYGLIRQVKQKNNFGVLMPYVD

With `Nc1ncnc2c1ncn2[C@@H]1O[C@H](CO[P@](=O)(O)O[P@](=O)(O)O[P@@](=O)(O)S)[C@@H](O)[C@H]1O` [ATP-gamma-S] the “effect on LctM processing of His6-LctA” value (LctM) was “less efficient”.

With `Nc1ncnc2c1ncn2[C@@H]1O[C@H](COP(=O)(O)OP(=O)(O)NP(=O)(O)O)[C@@H](O)[C@H]1O` [AMP-PNP] the “effect on LctM processing of His6-LctA” value (LctM) was “completely abolished”.

In the case of mersacidin, the “cytotoxic activity against MRSA” value [1] is given as “comparable cytotoxic activity”.

In the case of `O=C(O)CN(CCN(CC(=O)O)CC(=O)O)CC(=O)O` [EDTA], the “effect on LctM processing of His6-LctA” value (LctM) is reported as “abolished the reaction”.

With `Nc1ncnc2c1ncn2[C@@H]1O[C@H](COP(=O)(O)OP(=O)(O)CP(=O)(O)O)[C@@H](O)[C@H]1O` [AMP-PCP] the “effect on LctM processing of His6-LctA” value (LctM) was “completely abolished”.

In the case of “His6-LctM (lacticin 481 synthetase LctM with N-terminal His6-tag) (enzyme)”, the dehydration and cyclization of the substrate (ESI-FTMS, MS/MS) [2] is reported as greater than 80%, the dehydration of the substrate (MS) [3] is reported as 4 dehydrations and the dehydration of the substrate [4] is reported as 4 dehydrations. It also gave a dehydration of the substrate [5] of 4 dehydrations, a dehydration of the substrate [6] of 4 dehydrations and a dehydration of the substrate [7] of 4 dehydrations.

B1: His6-LctA (peptide)
peptide: GSSHHHHHHSSGLVPRGSHMKEQNSFNLLQEVTESELDLILGAKGGSGVIHTISHECNMNSWQFVFTCCS
With B1 the “antimicrobial activity (zone of inhibition)” value (L. lactis CNRZ 117) was “No antimicrobial activity was detected”, the “number of dehydrations after incubation with LctM” value (LctM) was “four” and the “substrate converted to M-72 product” value (LctM; treatment with LctM for 1 hour) was “more than 80%”. For the same molecule, the “cleavage of the leader by the LctT protease domain” value (“cleavage of the leader” for short) [8] was “substrates”.

B2: His6-LctA modified by LctM: fully processed product, lacticin 481 fused to its leader peptide (peptide)
peptide: GSSHHHHHHSSGLVPRGSHMKEQNSFNLLQEVTESELDLILGAKGGSGVIHTISHECNMNSWQFVFTCCS
modifications: not fully specified (residues 52, 54, 61, 67, bridges)
With B2 the “antimicrobial activity (zone of inhibition)” value (L. lactis CNRZ 117) was “No antimicrobial activity was detected” and the “cleavage of the leader” value [8] was “substrates”.

B3: LctMutA: His-tag, LctA leader and mutacin II structural region (peptide)
chain: GSSHHHHHHSSGLVPRGSHMLEMKEQNSFNLLQEVTESELDLILGANRWWQGVVPTVSYECRMNSWQHVFTCC
With B3 the “number of dehydrations after incubation with LctM” value (LctM) was 4 and the “cleavage of the leader” value [8] was “can remove the leader peptide and the His-tag”.
